As usually defined, the IC50 is the midpoint of a concentration-inhibition curve. A high value points to weaker potency in that assay. Usually Kd stands for the constant that tells how readily two partners part at equilibrium.

IC50 and Kd data for six molecules are collected here from patent US20050222400, “Aptamer constructs” (published 2005).

The target in data set [1] is T1, HIV-1 reverse transcriptase (RT) (HIV-1, UniProt P04585;P04585 P04585:588-1147,P04585:588-1027). Briefly: inhibition; RT activity, 80 mM KCl, 6 mM MgCl2, pH 8.0, 37 C. As for the experimental part: (§1) In vitro RT inhibition. To determine the IC₅₀ values, self-cleaved RNA aptamers were gel purified and eluted in 500 mM NH₄OAc/1 mM EDTA/0.2% SDS. RNA was then treated with phenol/chloroform and ethanol precipitated. RT reactions (50 μl) contained 80 mM KCl, 50 mM Tris-Cl (pH 8.0), 6 mM MgCl₂, 1 mM dithiothreitol (DTT), 0.1 mg/ml BSA, 10 μM […], 25 μM each of the remaining three dNTPs, and a range of concentrations of RNA aptamers (1 nM to 1000 nM). Reactions were incubated at 37° C. for 15 min. Reactions initiated by the addition of 25 ng of purified HIV-1 RT and at the end of the reaction, aliquots were spotted onto DE81 filter paper and washed with 2×SSC (30 mM Sodium Citrate, 300 mM NaCl pH 7.0). Dried filters were then counted and individual IC₅₀s were determined by fitting results to a dose-response curve using nonlinear regression (GraphPad Software Inc., San Diego, Calif.).
(§2) Next, the ability of each of the 10 selected RNA aptamers to inhibit recombinant purified HIV-1 RT was evaluated in vitro and the degree of inhibition (IC₅₀) by each aptamer was determined. In vitro transcription of the primary transcripts with T3 RNA polymerase was followed by gel purification of the processed aptamers. The IC₅₀s calculated ranged from 89 nM to >1000 nM (Table 1). Six RNA aptamers were selected for further studies, to test their effectiveness in inhibiting HIV-1 replication.

The target in data set [2] is T1, HIV-1 reverse transcriptase (RT). Description: EMSA; 50 mM KCl, 25 mM NaCl, 5% glycerol, BSA, 25 C. As for the experimental part: (§3) Radiolabeled, processed RNA aptamers were gel purified and eluted in 500 mM NH₄OAc/1 mM EDTA/0.2% SDS. RNA was then treated with phenouchloroform and ethanol precipitated. Electrophoretic mobility shift assays were performed by incubating 10 fmol purified RNA aptamer with increasing amounts of purified HIV-1 RT at 25° C. in 10 μl of buffer containing 50 mM KCl, 25 mM NaCl, 5% glycerol, 300 μg/ml BSA. The reaction products were electrophoresed on native polyacrylamide gels. Dried gels were exposed to a phosphorimager screen and Kd calculated by using the ImageQuant software. To determine the binding strengths, the percentage of band shift observed with increasing concentrations of RT (1 nM to 500 nM), with respect to the no protein control lane, was first determined. The Kd values were determined by fitting data from three independent experiments to a dose response curve using nonlinear regression (Cann 1996) (GraphPad Software Inc.).
Therefore, the ability of each of the 10 selected RNA aptamers to bind recombinant purified HIV-1 RT was evaluated in vitro via an electrophoretic mobility shift assay (EMSA) and the dissociation constants determined for each individual aptamer in its processed form. In vitro transcription of the primary transcripts, with T3 RNA polymerase was followed by gel purification of the processed aptamers. The aptamer RNAs were incubated with increasing concentrations of purified recombinant HIV-1 RT, the reactions were resolved on a non-denaturing polyacrylamide gel (FIG. 3) and Kd values calculated based on the degree of band shift caused by the formation of RNA-protein complexes (see Methods section).
(In general: In EMSA bound probe runs differently from free probe, usually more slowly.)

The target is the same in data set [3]. Description: EMSA; 50 mM KCl, 25 mM NaCl, 5% glycerol, BSA, 25 C; processed RNA with flanks. As to conditions: pseudoknot-like potential stated for some aptamers. As for the experimental part:
as §3
Therefore, the ability of each of the 10 selected RNA aptamers to bind recombinant purified HIV-1 RT was evaluated in vitro via an electrophoretic mobility shift assay (EMSA) and the dissociation constants determined for each individual aptamer in its processed form. In vitro transcription of the primary transcripts, with T3 RNA polymerase was followed by gel purification of the processed aptamers. […]

The target is the same in data set [4]. Briefly: inhibition; RT activity, 80 mM KCl, 50 mM Tris pH 8.0, 6 mM MgCl2, 37 C. As to conditions: pseudoknot-like potential stated for some aptamers. On the procedure:
as §1, §2

B1: aptamer 70.28t34 (ssRNA)
RNA: AGCUCGAGCUCGAAUUCGGGAACCGGACGGGUGAGAACCGAGACAAACACCGGGCCCGGAUCCGUC
With B1, 327 nM corresponded to half-maximal inhibition in data set [1] (IC50). The Kd in data set [2] amounted to 219 nM.

B2: aptamer 70.15 (ssRNA)
RNA: AGCUCGAGCUCGAAUUCCCUACGAACCCAGGAGAUAAGGGGGAAAACUCUGGAAAACGGGCCCGGAUCCGUC
With B2, 159 nM corresponded to half-maximal inhibition in data set [1] (IC50). In data set [2], binding was characterised by a dissociation constant (Kd) of 63 nM.

B3: aptamer 1.1 (ssRNA)
RNA: AGCUCGAGCUCGAAUUCGGGAGAUUCCGUUUUCAGUCCGGGAAAAACUGAAGGGCCCGGAUCCGUC
For the molecule B3, it took 607 nM to reach half-maximal inhibition in data set [1] (IC50). In data set [2], this molecule returned a dissociation constant (Kd) of 270 nM.

B4: aptamer 70.8,13 (ssRNA)
RNA: AGCUCGAGCUCGAAUUCAAAGAGAUCUGGCAGUGUCACAACCAGGAAAAAGACACGACGAACGGGCCCGGAUCCGUC
With B4, the Kd in data set [3] stood at 27 nM. In addition, the midpoint of inhibition in data set [4], the IC50, lay at 89 nM.

B5: aptamer 70.28 (ssRNA)
RNA: AGCUCGAGCUCGAAUUCACAAGAACCGGACCGGGUGAGAACCGAGACAAACACCCACCAAGAGGGCCCGGAUCCGUC
For B5, the IC50 in data set [1] (pseudoknot) is 254 nM. In data set [2] (pseudoknot), this molecule yielded a dissociation constant Kd of 201 nM.

B6: aptamer 80.55,65 (ssRNA)
RNA: AGCUCGAGCUCGAAUUCAUUUAAUUCCAUAAUGGCUCACCACAAGGGGAACGUUGAUGAAAUAGGGCCCGGAUCCGUC
Regarding B6, in data set [1], it took 143 nM to reach half-maximal inhibition (IC50). Also, the dissociation constant Kd in data set [2] came to 129 nM.
